Assay results taken from paper PMC8748612, “Maximizing response to intratumoral immunotherapy in mice by tuning local retention” (Nature Communications, 2022).
Positions count from the first letter of the chain named. In names and notes the source's numbering stands. Where two headings read alike, the source gives them in different places. Each block holds one molecule with its values, some of them ahead of it.

Key:
[1] = target: Collagen I (Gibco), coated on 96-well plates (UniProt P02454); test: ELISA; Collagen I (Gibco) coated 96-well plates; LAIR-fusion proteins in PBSTA (PBS, 0.1% BSA, 0.05% Tween-20) for 4 h at room temperature; detected with HRP-conjugated polyclonal anti-6xHis
Collagen I (Gibco), coated on 96-well plates (UniProt P02454), sequence (P02454 152-1207, chain 1 of 2): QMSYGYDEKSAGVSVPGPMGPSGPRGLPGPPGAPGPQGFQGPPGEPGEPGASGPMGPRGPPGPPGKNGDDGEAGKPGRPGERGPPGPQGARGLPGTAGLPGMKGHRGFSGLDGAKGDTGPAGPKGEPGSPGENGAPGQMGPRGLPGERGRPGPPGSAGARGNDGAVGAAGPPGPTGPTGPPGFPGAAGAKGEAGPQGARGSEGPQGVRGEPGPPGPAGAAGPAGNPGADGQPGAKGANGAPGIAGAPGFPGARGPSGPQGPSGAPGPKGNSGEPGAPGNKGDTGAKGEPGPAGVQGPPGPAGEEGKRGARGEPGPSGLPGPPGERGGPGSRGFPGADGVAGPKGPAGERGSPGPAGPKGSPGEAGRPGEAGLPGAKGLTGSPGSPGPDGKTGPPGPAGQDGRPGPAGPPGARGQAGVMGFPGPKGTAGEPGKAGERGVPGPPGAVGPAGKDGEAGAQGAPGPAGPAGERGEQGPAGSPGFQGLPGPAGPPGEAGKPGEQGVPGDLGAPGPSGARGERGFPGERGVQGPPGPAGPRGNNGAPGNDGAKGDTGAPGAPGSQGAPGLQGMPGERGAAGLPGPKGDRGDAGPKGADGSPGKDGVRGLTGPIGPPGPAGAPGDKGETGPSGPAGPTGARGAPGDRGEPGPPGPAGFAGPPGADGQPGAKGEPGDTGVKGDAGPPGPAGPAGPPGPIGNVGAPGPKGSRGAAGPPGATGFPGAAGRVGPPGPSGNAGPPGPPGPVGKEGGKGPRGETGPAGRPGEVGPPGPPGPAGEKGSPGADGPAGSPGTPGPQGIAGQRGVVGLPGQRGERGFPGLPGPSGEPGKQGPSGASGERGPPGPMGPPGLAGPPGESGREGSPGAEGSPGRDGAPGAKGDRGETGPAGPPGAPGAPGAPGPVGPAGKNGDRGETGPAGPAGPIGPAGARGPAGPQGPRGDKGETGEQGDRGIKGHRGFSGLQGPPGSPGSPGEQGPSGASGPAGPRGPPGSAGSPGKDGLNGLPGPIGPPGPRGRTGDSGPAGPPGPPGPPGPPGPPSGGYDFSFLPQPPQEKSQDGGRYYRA
Collagen I (Gibco), coated on 96-well plates (UniProt P02454), sequence (P02466 86-1125, chain 2 of 2, further chain): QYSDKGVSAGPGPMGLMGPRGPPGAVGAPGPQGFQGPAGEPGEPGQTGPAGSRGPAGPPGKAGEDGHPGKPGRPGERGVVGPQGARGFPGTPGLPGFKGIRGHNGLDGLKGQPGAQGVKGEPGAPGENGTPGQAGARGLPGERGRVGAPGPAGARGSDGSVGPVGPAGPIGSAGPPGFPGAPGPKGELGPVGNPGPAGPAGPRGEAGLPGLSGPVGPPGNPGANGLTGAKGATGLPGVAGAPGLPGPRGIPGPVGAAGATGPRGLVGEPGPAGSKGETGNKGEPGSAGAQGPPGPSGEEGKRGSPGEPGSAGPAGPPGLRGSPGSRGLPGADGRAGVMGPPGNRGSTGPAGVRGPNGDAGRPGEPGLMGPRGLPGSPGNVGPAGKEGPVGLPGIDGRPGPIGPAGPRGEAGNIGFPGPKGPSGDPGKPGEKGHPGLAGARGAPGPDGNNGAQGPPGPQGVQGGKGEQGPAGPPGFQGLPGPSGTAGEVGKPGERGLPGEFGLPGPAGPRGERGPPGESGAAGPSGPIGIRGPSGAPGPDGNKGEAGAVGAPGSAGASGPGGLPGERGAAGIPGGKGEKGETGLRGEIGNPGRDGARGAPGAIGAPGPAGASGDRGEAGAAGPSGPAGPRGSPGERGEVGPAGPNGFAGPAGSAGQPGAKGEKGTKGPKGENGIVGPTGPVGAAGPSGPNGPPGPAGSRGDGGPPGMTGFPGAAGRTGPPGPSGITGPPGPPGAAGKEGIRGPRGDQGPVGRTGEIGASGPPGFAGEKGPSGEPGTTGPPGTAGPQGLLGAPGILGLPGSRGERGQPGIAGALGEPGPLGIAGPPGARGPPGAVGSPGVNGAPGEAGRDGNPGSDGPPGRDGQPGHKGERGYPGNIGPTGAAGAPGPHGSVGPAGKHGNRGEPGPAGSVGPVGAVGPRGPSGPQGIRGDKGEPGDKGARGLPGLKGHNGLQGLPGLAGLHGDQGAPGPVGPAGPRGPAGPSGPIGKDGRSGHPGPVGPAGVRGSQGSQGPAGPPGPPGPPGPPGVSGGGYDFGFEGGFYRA

collagen type I = target: T1, collagen type I (UniProt P02454 152-1207; P02466 86-1125); test: ELISA; Collagen I (Gibco) coated 96-well plates; LAIR-MSA fusion proteins in PBSTA for 4 h at room temperature; detected with HRP-conjugated anti-6xHis; mean, n = 2
T1 construct: collagen type I, alpha-1 chain; collagen type I, alpha-2 chain; two alpha-1 chains and one alpha-2 chain, and rat as the source, are surmised; also called Collagen I (Gibco); native collagen; source: bought: Gibco
T1 sequence (P02454 152-1207, chain 1 of 2): as the sequence (P02454 152-1207, chain 1 of 2) above
T1 sequence (P02466 86-1125, chain 2 of 2): as the sequence (P02466 86-1125, chain 2 of 2, further chain) above

[2] = target: Collagen I (Gibco), coated on 96-well plates (UniProt P02454 152-1207; P02466 86-1125); test: ELISA
Target sequence in this assay (P02454 152-1207, chain 1 of 2): as the sequence (P02454 152-1207, chain 1 of 2) above
Target sequence in this assay (P02466 86-1125, chain 2 of 2): as the sequence (P02466 86-1125, chain 2 of 2, further chain) above

[3] = target: T2, alternatively spliced extra-domain B (EIIIB) domain of fibronectin (Mus musculus (assumed; murine B16F10 …, UniProt P11276); test: not stated; Kd for EIIIB printed in the discussion; Supplementary Fig. 18b is pointed to
T2 construct: fibronectin, alternatively spliced EIIIB (extra-domain B) domain; also called FN-EIIIB

[4] = target: T3, Collagen I (Gibco), coated on 96-well plates (UniProt P02454 152-1207; P02466 86-1125); test: ELISA; Collagen I (Gibco) coated 96-well plates; LAIR-fusion proteins in PBSTA (PBS, 0.1% BSA, 0.05% Tween-20) for 4 h at room temperature; detected with HRP-conjugated polyclonal anti-6xHis; conditions: both partners purified
T3 construct: collagen type I, alpha-1(I) chain; collagen type I, alpha-2(I) chain; the two chains and rat as species are surmised; also called native collagen; collagen type I; source: bought: Gibco (collagen I coated 96-well plates)
T3 sequence (P02454 152-1207, chain 1 of 2): as the sequence (P02454 152-1207, chain 1 of 2) above
T3 sequence (P02466 86-1125, chain 2 of 2): as the sequence (P02466 86-1125, chain 2 of 2, further chain) above

Molecule: LAIR-LAIR-MSA^H464Q-IL2-his (from UniProt Q8BG84 22-144; Q8BG84 22-144)
- Kd [1]: 13 nM

Molecule: LAIR-IL2-his (from UniProt Q8BG84 22-144)
- Kd [1]: 220 nM

B1: LAIR30.w.A V27A,D45G-MSA (other)
chain: QEGSLPDITIFPNSSLMISQGTFVTVACSYSDKHDLYNMVRLEKGGSTFMEKSTEPYKTEDEFEIGPVNETITGHYSCIYSKGITWSERSKTLELKVIKENVIQTPAPGPTSDTSWLKTYSIYEAHKSEIAHRYNDLGEQHFKGLVLIAFSQYLQKCSYDEHAKLVQEVTDFAKTCVADESAANCDKSLHTLFGDKLCAIPNLRENYGELADCCTKQEPERNECFLQHKDDNPSLPPFERPEAEAMCTSFKENPTTFMGHYLHEVARRHPYFYAPELLYYAEQYNEILTQCCAEADKESCLTPKLDGVKEKALVSSVRQRMKCSSMQKFGERAFKAWAVARLSQTFPNADFAEITKLATDLTKVNKECCHGDLLECADDRAELAKYMCENQATISSKLQTCCDKPLLKKAHCLSEVEHDTMPADLPAIAADFVEDQEVCKNYAEAKDVFLGTFLYEYSRRHPDYSVSLLLRLAKKYEATLEKCCAEANPPACYGTVLAEFQPLVEEPKNLVKTNCDLYEKLGEYGFQNAILVRYTQKAPQVSTPTLVEAARNLGRVGTKCCTLPEDQRLPCVEDYLSAILNRVCLLHEKTPVSEHVTKCCSGSLVERRPCFSALTVDETYVPKEFKAETFTFHSDICTLPEKEKQIKKQTALAELVKHKPKATAEQLKTVMDDFAQFLDTCCKAADKDTCFSTEGPNLVTRCKDALA
- Kd (collagen type I; both partners purified): 120 nM

B2: LAIR30.w.E F63L-MSA (other)
chain: B1 chain with A27V, G45D, F63L
- Kd (collagen type I; both partners purified): 96 nM

B3: LAIR30.w.B F49S-MSA (other)
chain: B1 chain with A27V, G45D, F49S
- Kd (collagen type I; both partners purified): 130 nM

B4: LAIR30.w.C E51G-MSA (other)
chain: B1 chain with A27V, G45D, E51G
- Kd (collagen type I; both partners purified): 170 nM

B5: LAIR30.w.F S90A-MSA (other)
chain: B1 chain with A27V, G45D, S90A
- Kd (collagen type I; both partners purified): 63 nM

B6: LAIR30.d.D E43A-MSA (other)
chain: B1 chain with A27V, E43A, G45D
- Kd (collagen type I; both partners purified): 220 nM

B9: LAIR-LAIR-MSA^H464Q-his (other)
chain: QEGSLPDITIFPNSSLMISQGTFVTVVCSYSDKHDLYNMVRLEKDGSTFMEKSTEPYKTEDEFEIGPVNETITGHYSCIYSKGITWSERSKTLELKVIKENVIQTPAPGPTSDTSWLKTYSIYQEGSLPDITIFPNSSLMISQGTFVTVVCSYSDKHDLYNMVRLEKDGSTFMEKSTEPYKTEDEFEIGPVNETITGHYSCIYSKGITWSERSKTLELKVIKENVIQTPAPGPTSDTSWLKTYSIYEAHKSEIAHRYNDLGEQHFKGLVLIAFSQYLQKCSYDEHAKLVQEVTDFAKTCVADESAANCDKSLHTLFGDKLCAIPNLRENYGELADCCTKQEPERNECFLQHKDDNPSLPPFERPEAEAMCTSFKENPTTFMGHYLHEVARRHPYFYAPELLYYAEQYNEILTQCCAEADKESCLTPKLDGVKEKALVSSVRQRMKCSSMQKFGERAFKAWAVARLSQTFPNADFAEITKLATDLTKVNKECCHGDLLECADDRAELAKYMCENQATISSKLQTCCDKPLLKKAHCLSEVEHDTMPADLPAIAADFVEDQEVCKNYAEAKDVFLGTFLYEYSRRHPDYSVSLLLRLAKKYEATLEKCCAEANPPACYGTVLAEFQPLVEEPKNLVKTNCDLYEKLGEYGFQNAILVRYTQKAPQVSTPTLVEAARNLGRVGTKCCTLPEDQRLPCVEDYLSAILNRVCLLQEKTPVSEHVTKCCSGSLVERRPCFSALTVDETYVPKEFKAETFTFHSDICTLPEKEKQIKKQTALAELVKHKPKATAEQLKTVMDDFAQFLDTCCKAADKDTCFSTEGPNLVTRCKDALA
- Kd [2]: 20 nM

Further lines, results first:

- Kd (collagen type I): 17 nM
Molecule: LAIR-MSA (from UniProt P07724 25-608)

- Kd [2]: > 1000 nM
B7: LAIRx-LAIRx-MSA^H464Q-his (other)
chain: B9 chain with R41A, E43A, R164A, E166A

- Kd [2]: 158 nM
B8: LAIR-LAIRx-MSA^H464Q-his (other)
chain: B9 chain with R164A, E166A

- Kd [3]: 1 nM
B10: NJB2-MSA^H464Q-IL2 (VHH)
VHH: QVQLVETGGGLVQAGGSLRLSCAASGSTFSHNAGGWYRQAPEKQRELVAGISSDGNINYADSVKDRFTISRDNASNTMYLQMNNLKPEDTAVYVCNIRGSYGNTYYSRWGQGTQVTVSS
notes: nanobody NJB2 (15 kD); mouse serum albumin (MSA) with H464Q; interleukin-2 (IL-2); 98 kD; MSA^H464Q incorporated between the nanobody and IL-2; source: suspension HEK293, transfected, purified

- Kd [4]: > 1000 nM
B11: LAIRx-IL2-his (other)
chain: QEGSLPDITIFPNSSLMISQGTFVTVVCSYSDKHDLYNMVALAKDGSTFMEKSTEPYKTEDEFEIGPVNETITGHYSCIYSKGITWSERSKTLELKVIKENVIQTPAPGPTSDTSWLKTYSIYAPTSSSTSSSTAEAQQQQQQQQQQQQHLEQLLMDLQELLSRMENYRNLKLPRMLTFKFYLPKQATELKDLQCLEDELGPLRHVLDLTQSKSFQLEDAENFISNIRVTVVKLKGSDNTFECQFDDESATVVDFLRRWIAFCQSIISTSPQ

- Kd [2]: > 1000 nM
B12: LAIRx-his (domain or fragment)
chain: QEGSLPDITIFPNSSLMISQGTFVTVVCSYSDKHDLYNMVALAKDGSTFMEKSTEPYKTEDEFEIGPVNETITGHYSCIYSKGITWSERSKTLELKVIKENVIQTPAPGPTSDTSWLKTYSIY

- Kd [2]: 102 nM
B13: LAIR-his (domain or fragment)
chain: B12 chain with A41R, A43E

- Kd [4]: > 1000 nM
B14: LAIRx-LAIRx-MSA^H464Q-IL2-his (other)
chain: QEGSLPDITIFPNSSLMISQGTFVTVVCSYSDKHDLYNMVALAKDGSTFMEKSTEPYKTEDEFEIGPVNETITGHYSCIYSKGITWSERSKTLELKVIKENVIQTPAPGPTSDTSWLKTYSIYQEGSLPDITIFPNSSLMISQGTFVTVVCSYSDKHDLYNMVALAKDGSTFMEKSTEPYKTEDEFEIGPVNETITGHYSCIYSKGITWSERSKTLELKVIKENVIQTPAPGPTSDTSWLKTYSIYEAHKSEIAHRYNDLGEQHFKGLVLIAFSQYLQKCSYDEHAKLVQEVTDFAKTCVADESAANCDKSLHTLFGDKLCAIPNLRENYGELADCCTKQEPERNECFLQHKDDNPSLPPFERPEAEAMCTSFKENPTTFMGHYLHEVARRHPYFYAPELLYYAEQYNEILTQCCAEADKESCLTPKLDGVKEKALVSSVRQRMKCSSMQKFGERAFKAWAVARLSQTFPNADFAEITKLATDLTKVNKECCHGDLLECADDRAELAKYMCENQATISSKLQTCCDKPLLKKAHCLSEVEHDTMPADLPAIAADFVEDQEVCKNYAEAKDVFLGTFLYEYSRRHPDYSVSLLLRLAKKYEATLEKCCAEANPPACYGTVLAEFQPLVEEPKNLVKTNCDLYEKLGEYGFQNAILVRYTQKAPQVSTPTLVEAARNLGRVGTKCCTLPEDQRLPCVEDYLSAILNRVCLLQEKTPVSEHVTKCCSGSLVERRPCFSALTVDETYVPKEFKAETFTFHSDICTLPEKEKQIKKQTALAELVKHKPKATAEQLKTVMDDFAQFLDTCCKAADKDTCFSTEGPNLVTRCKDALAAPTSSSTSSSTAEAQQQQQQQQQQQQHLEQLLMDLQELLSRMENYRNLKLPRMLTFKFYLPKQATELKDLQCLEDELGPLRHVLDLTQSKSFQLEDAENFISNIRVTVVKLKGSDNTFECQFDDESATVVDFLRRWIAFCQSIISTSPQ
